This note sets out measurements from article PMC11680790, “Structural and functional determination of peptide versus small molecule ligand binding at the apelin receptor” (Nature Communications, 2024).

Experiment [1] has as its target wild-type apelin receptor tagged C-terminally with eGFP (human) (UniProt P35414). Briefly: fluorescent ligand binding on cells (high content confocal imaging); CHO-K1 cells transiently transfected with receptor-eGFP; apelin647 300 nM or ELA647 1 µM in HBSS, 90 min, room temperature, washed and fixed; mean membrane fluorescence of eGFP-positive cells as % WT; non-specific binding with 10 µM [Pyr1]apelin-13.

In experiment [2] the target is apelin receptor NxStaR (stabilised human apelin receptor) (human) (UniProt P35414). Briefly: SPR; Biacore T200; receptor immobilised on NTA chip (Ni-NTA capture and amine coupling); 10 °C; 0.01 M HEPES pH 7.5, […] NaCl, 0.02% DDM, 5% DMSO; single-cycle, 6.25-100 nM for Apelin-13 and ΔC2; 1:1 model.
Experiment [3] has the same target. The experiment can be described thus: SPR; Biacore 8K+; receptors immobilised on NTA chip (Ni-NTA capture and amine coupling); 10 °C; pH 6.0 buffer ([…] MES, […] NaCl, 0.02% DDM, 5% DMSO); single-cycle, four concentrations; 1:1 model.
The target is the same in experiment [4]. The experiment can be described thus: SPR; Biacore 8K+; receptors immobilised on NTA chip (Ni-NTA capture and amine coupling); 10 °C; pH 7.5 buffer (0.01 M HEPES, […] NaCl, 0.02% DDM, 5% DMSO); single-cycle, four concentrations; 1:1 model.

Chain of wild-type apelin receptor tagged C-terminally with eGFP (human) (P35414 whole entry): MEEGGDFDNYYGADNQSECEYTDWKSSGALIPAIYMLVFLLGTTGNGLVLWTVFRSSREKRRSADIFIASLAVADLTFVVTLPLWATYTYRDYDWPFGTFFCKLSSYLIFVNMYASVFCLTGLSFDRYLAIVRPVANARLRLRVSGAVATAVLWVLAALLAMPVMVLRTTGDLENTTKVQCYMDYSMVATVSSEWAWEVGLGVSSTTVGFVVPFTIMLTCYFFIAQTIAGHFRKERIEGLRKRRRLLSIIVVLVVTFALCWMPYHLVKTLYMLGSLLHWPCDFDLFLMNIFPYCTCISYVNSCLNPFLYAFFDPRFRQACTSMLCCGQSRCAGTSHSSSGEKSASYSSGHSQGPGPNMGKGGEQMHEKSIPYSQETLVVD

With “apelin647 fluorescently labelled peptide”, the membrane apelin647 fluorescence (% WT) in experiment [1] was 100 % WT. In experiment [2], “apelin-13 ΔC2 (C-terminally truncated apelin-13 ending with M11) (peptide)” gave a Kd of 5.79 nM. This lies in the single-digit nanomolar range. In turn, ELA647 fluorescently labelled peptide showed a membrane ELA647 fluorescence (% WT) in experiment [1] of 100 % WT. For “NXE'992, chimeric peptide (pyrazole-QRPRL[AIB]S[PipALA]VPFP)”, the Kd in experiment [3] worked out at 21 nM; in experiment [4], 3.27 nM.
